Experimental findings from US12630599B2, “CA2 compositions and methods for tunable regulation” (Obsidian Therapeutics, Inc., priority 2019, dated 2026) are described below.

In the assay the test system is Nalm-6 cells. The assay can be described thus: 48 hour cytotoxicity assay, T cells co-cultured with Nalm-6 cells (NucRed), Incucyte (Example 4, Table 14). It counts as cell-based. As to conditions: for Average Total Nalm6-NucRed Area after 48 hour at E:T ratio of 3:1: E:T ratio 3:1, 48 hour; for Average Total Nalm6-NucRed Area after 48 hour at E:T ratio of 10:1: E:T ratio 10:1, 48 hour. The text has this:
The following constructs were transduced into T cells: OT-001356 (nucleic acid sequence SEQ ID NO: 6081 encodes two amino acid sequences, first is SEQ ID NO: 6082 (nucleic acid sequence SEQ ID NO: 6083) second is SEQ ID NO: 6084 (nucleic acid sequence SEQ ID NO: 6085)), OT-001356 (amino acid sequence provided as SEQ ID NO: 6092 and nucleic acid is SEQ ID NO: 6093) OT-001407 (amino acid sequence provided as SEQ ID NO: 6086 and nucleic acid is SEQ ID NO: 6087), OT-001895, OT-002011, OT-002111, OT-0020%, OT-02171. The cells were expanded for 10 days and utilized for cytotoxicity assays. Percentage of CAR positive cells obtained with each of the constructs was as follows: OT-001356: 45.3%; OT-001407, OT-001895: 29.4%, OT-002011: 24.3%, OT-002111: 19.6%, OT-0020%: 6.08%, OT-002171: 13.3%. For cytotoxicity assays, T cells were thawed and co-cultured with Nalm-6 cells (stably expressing NucRed) at different T cells to Nalm-6 cell culture ratios. Target cell viability was determined by measuring cellular fluorescence over time using an Incucyte assay and the results are shown in Table 14.

B1: OT-002111: construct transduced into T cells for the study of the effect of mbIL12 on CAR activity (protein)
chain: IWELKKDVYVVELDWYPDAPGEMVVLTCDTPEEDGITWTLDQSSEVLGSGKTLTIQVKEFGDAGQYTCHKGGEVLSHSLLLLHKKEDGIWSTDILKDQKEPKNKTFLRCEAKNYSGRFTCWWLTTISTDLTFSVKSSRGSSDPQGVTCGAATLSAERVRGDNKEYEYSVECQEDSACPAAEESLPIEVMVDAVHKLKYENYTSSFFIRDIIKPDPPKNLQLKPLKNSRQVEVSWEYPDTWSTPHSYFSLTFCVQVQGKSKREKKDRVFTDKTSATVICRKNASISVRAQDRYYSSSWSEWASVPCSGGGGSGGGGSGGGGSRNLPVATPDPGMFPCLHHSQNLLRAVSNMLQKARQTLEFYPCTSEEIDHEDITKDKTSTVEACLPLELTKNESCLNSRETSFITNGSCLASRKTSFMMALCLSSIYEDLKMYQVEFKTMNAKLLMDPKRQIFLDQNMLAVIDELMQALNFNSETVPQKSSLEEPDFYKTKIKLCILLHAFRIRAVTIDRVMSYLNASGSGSGSGSADFPTPSISDFEIPTSNIRRIICSTSGGFPEPHLSWLENGEELNAINTTVSQDPETELYAVSSKLDFNMTTNHSFMCLIKYGHLRVNQTFNWNTTKQEHFPDNGS
As to B1, the “Average Total Nalm6-NucRed Area after 48 hour at E:T ratio of 3:1” value was 42,520 and the “Average Total Nalm6-NucRed Area after 48 hour at E:T ratio of 10:1” value was 42,899.

B2: OT-002011: construct transduced into T cells for the study of the effect of mbIL12 on CAR activity (protein)
chain: IWELKKDVYVVELDWYPDAPGEMVVLTCDTPEEDGITWTLDQSSEVLGSGKTLTIQVKEFGDAGQYTCHKGGEVLSHSLLLLHKKEDGIWSTDILKDQKEPKNKTFLRCEAKNYSGRFTCWWLTTISTDLTFSVKSSRGSSDPQGVTCGAATLSAERVRGDNKEYEYSVECQEDSACPAAEESLPIEVMVDAVHKLKYENYTSSFFIRDIIKPDPPKNLQLKPLKNSRQVEVSWEYPDTWSTPHSYFSLTFCVQVQGKSKREKKDRVFTDKTSATVICRKNASISVRAQDRYYSSSWSEWASVPCSGGGGSGGGGSGGGGSRNLPVATPDPGMFPCLHHSQNLLRAVSNMLQKARQTLEFYPCTSEEIDHEDITKDKTSTVEACLPLELTKNESCLNSRETSFITNGSCLASRKTSFMMALCLSSIYEDLKMYQVEFKTMNAKLLMDPKRQIFLDQNMLAVIDELMQALNFNSETVPQKSSLEEPDFYKTKIKLCILLHAFRIRAVTIDRVMSYLNASGSGSGSGSGSGSGSGSGSGSGSGSGSGSGSLDFACDLLPSWAITLISVNGIFVICCLTYCFAPRCRERRGS
For B2, the “Average Total Nalm6-NucRed Area after 48 hour at E:T ratio of 3:1” value is listed as 59,465 and the “Average Total Nalm6-NucRed Area after 48 hour at E:T ratio of 10:1” value is listed as 44,301.
